Measured values reported in PMC10786891, “Massively parallel profiling of RNA-targeting CRISPR-Cas13d”.
Changes are numbered by the printed parent chain. Names may count otherwise.

B1: target 1 insG 3' of 4,insU 3' of 4 (mixed)
RNA 1: CACCCGUGCAAAAAUGCAGGGGUCUAAAACUGAGCGGAUAACCUCUCUAUGG
RNA 2: GGGAAUGGAUCCACAUCUACGAAUUCGUACCAUAGAGAGGUUAUCCGCGUUCACCGAGAUCGGAAGAGCACACGU
B2: target 1 insG 3' of 16,insG 3' of 2 (mixed)
RNA 1: B1 RNA 1
RNA 2: GGGAAUGGAUCCACAUCUACGAAUUCGUACCAUAGAGGAGGUUAUCCGCUCGACCGAGAUCGGAAGAGCACACGU
B3: target 1 C4A,U10G (mixed)
RNA 1: B1 RNA 1
RNA 2: GGGAAUGGAUCCACAUCUACGAAUUCGUACCAUAGAGAGGUGAUCCGAUCACCGAGAUCGGAAGAGCACACGU
B4: target 1 insA 3' of 7,insA 3' of 4 (mixed)
RNA 1: B1 RNA 1
RNA 2: B1 RNA 2 with C46A, G47C, C48G, G49C, U50A
B5: target 1 insC 3' of 22,insC 3' of 20 (mixed)
RNA 1: B1 RNA 1
RNA 2: GGGAAUGGAUCCACAUCUACGAAUUCGUACCCACUAGAGAGGUUAUCCGCUCACCGAGAUCGGAAGAGCACACGU
B6: target 1 insG 3' of 9,insC 3' of 9 (mixed)
RNA 1: B1 RNA 1
RNA 2: B1 RNA 2 with U44G, C46U, G47C, U50C
B7: target 1 insC 3' of 15,insU 3' of 15 (mixed)
RNA 1: B1 RNA 1
RNA 2: B5 RNA 2 with C32A, A33U, C34A, U35G, A38C, G39U
B8: target 1 insG 3' of 16,insU 3' of 15 (mixed)
RNA 1: B1 RNA 1
RNA 2: B5 RNA 2 with C32A, A33U, C34A, U35G, A38G, G39U
B9: target 1 insG 3' of 8,insA 3' of 7 (mixed)
RNA 1: B1 RNA 1
RNA 2: B1 RNA 2 with C45G, G47A, U50C
B10: target 1 insC 3' of 17,insG 3' of 16 (mixed)
RNA 1: B1 RNA 1
RNA 2: B5 RNA 2 with C32A, A33U, C34A, U35G, A36C, G37A, A38G
B11: target 1 insA 3' of 2 (mixed)
RNA 1: B1 RNA 1
RNA 2: GGGAAUGGAUCCACAUCUACGAAUUCGUACCAUAGAGAGGUUAUCCGCUCAACCGAGAUCGGAAGAGCACACGU
B12: target 1 insA 3' of 22,insC 3' of 10 (mixed)
RNA 1: B1 RNA 1
RNA 2: GGGAAUGGAUCCACAUCUACGAAUUCGUACACAUAGAGAGGUUCAUCCGCUCACCGAGAUCGGAAGAGCACACGU
B13: target 1 C2G,G13A (mixed)
RNA 1: B1 RNA 1
RNA 2: B3 RNA 2 with G39A, G42U, A48C, C50G
B14: target 1 G15A,A18C (mixed)
RNA 1: B1 RNA 1
RNA 2: B3 RNA 2 with A34C, G37A, G42U, A48C
B15: target 1 insA 3' of 11,insU 3' of 7 (mixed)
RNA 1: B1 RNA 1
RNA 2: B1 RNA 2 with U42A, A43U, U44A, C45U, G47U, U50C
B16: target 1 A9U,U11C (mixed)
RNA 1: B1 RNA 1
RNA 2: B3 RNA 2 with U41C, G42U, A43U, A48C
B17: target 1 insC 3' of 5,insG 3' of 4 (mixed)
RNA 1: B1 RNA 1
RNA 2: B1 RNA 2 with G49C, U50G
B18: target 1 U8G,G15U (mixed)
RNA 1: B1 RNA 1
RNA 2: B3 RNA 2 with G37U, G42U, U44G, A48C
B19: target 1 insA 3' of 17,insG 3' of 8 (mixed)
RNA 1: B1 RNA 1
RNA 2: B2 RNA 2 with G37A, C46G, G48C, C49G, U50C, C51U, G52C
B20: target 1 complement block 3-11 (mixed)
RNA 1: B1 RNA 1
RNA 2: B3 RNA 2 with U41A, G42A, A43U, U44A, C45G, C46G, G47C, A48G, U49A
B21: target 1 insU 3' of 12,insC 3' of 9 (mixed)
RNA 1: B1 RNA 1
RNA 2: B1 RNA 2 with A43U, U44A, C46U, G47C, U50C
B22: target 1 G12U,U19C (mixed)
RNA 1: B1 RNA 1
RNA 2: B3 RNA 2 with U33C, G40U, G42U, A48C
B23: target 1 insC 3' of 8,insG 3' of 7 (mixed)
RNA 1: B1 RNA 1
RNA 2: B1 RNA 2 with U50C
B24: target 1 C2A,G5U (mixed)
RNA 1: B1 RNA 1
RNA 2: B3 RNA 2 with G42U, G47U, A48C, C50A
B25: target 1 U19A,C21U (mixed)
RNA 1: B1 RNA 1
RNA 2: B3 RNA 2 with C31U, U33A, G42U, A48C
B26: target 1 insU 3' of 1 (mixed)
RNA 1: B1 RNA 1
RNA 2: B11 RNA 2 with A52U
B27: target 1 insC 3' of 17,insC 3' of 1 (mixed)
RNA 1: B1 RNA 1
RNA 2: B2 RNA 2 with A36C, G37A, G52A, A53C
B28: target 1 insC 3' of 17,insU 3' of 1 (mixed)
RNA 1: B1 RNA 1
RNA 2: B2 RNA 2 with A36C, G37A, G52A, A53U
B29: target 1 A9U,U19G (mixed)
RNA 1: B1 RNA 1
RNA 2: B3 RNA 2 with U33G, G42U, A43U, A48C
B30: target 1 insU 3' of 9,insC 3' of 8 (mixed)
RNA 1: B1 RNA 1
RNA 2: B1 RNA 2 with C45U, G47C, U50C
B31: target 1 insU 3' of 17,insC 3' of 9 (mixed)
RNA 1: B1 RNA 1
RNA 2: B12 RNA 2 with A31C, C32A, A33U, U34A, A35G, G36U, C44A, A45C
B32: target 1 insU 3' of 12,insA 3' of 11 (mixed)
RNA 1: B1 RNA 1
RNA 2: B1 RNA 2 with C45A, C46U, G47C, U50C
B33: target 1 C6U,A20C (mixed)
RNA 1: B1 RNA 1
RNA 2: B3 RNA 2 with A32C, G42U, C46U, A48C
B34: target 1 insG 3' of 14,insU 3' of 2 (mixed)
RNA 1: B1 RNA 1
RNA 2: B2 RNA 2 with G38A, A39G, G52U
B35: target 1 insG 3' of 21,insG 3' of 21 (mixed)
RNA 1: B1 RNA 1
RNA 2: B5 RNA 2 with C32G, A33G, C34A

Target: T1, EsCas13d, nuclease-dead (Eubacterium siraeum, UniProt B0MS50, R295A;H300A;R849A;H854A)
T1 sequence: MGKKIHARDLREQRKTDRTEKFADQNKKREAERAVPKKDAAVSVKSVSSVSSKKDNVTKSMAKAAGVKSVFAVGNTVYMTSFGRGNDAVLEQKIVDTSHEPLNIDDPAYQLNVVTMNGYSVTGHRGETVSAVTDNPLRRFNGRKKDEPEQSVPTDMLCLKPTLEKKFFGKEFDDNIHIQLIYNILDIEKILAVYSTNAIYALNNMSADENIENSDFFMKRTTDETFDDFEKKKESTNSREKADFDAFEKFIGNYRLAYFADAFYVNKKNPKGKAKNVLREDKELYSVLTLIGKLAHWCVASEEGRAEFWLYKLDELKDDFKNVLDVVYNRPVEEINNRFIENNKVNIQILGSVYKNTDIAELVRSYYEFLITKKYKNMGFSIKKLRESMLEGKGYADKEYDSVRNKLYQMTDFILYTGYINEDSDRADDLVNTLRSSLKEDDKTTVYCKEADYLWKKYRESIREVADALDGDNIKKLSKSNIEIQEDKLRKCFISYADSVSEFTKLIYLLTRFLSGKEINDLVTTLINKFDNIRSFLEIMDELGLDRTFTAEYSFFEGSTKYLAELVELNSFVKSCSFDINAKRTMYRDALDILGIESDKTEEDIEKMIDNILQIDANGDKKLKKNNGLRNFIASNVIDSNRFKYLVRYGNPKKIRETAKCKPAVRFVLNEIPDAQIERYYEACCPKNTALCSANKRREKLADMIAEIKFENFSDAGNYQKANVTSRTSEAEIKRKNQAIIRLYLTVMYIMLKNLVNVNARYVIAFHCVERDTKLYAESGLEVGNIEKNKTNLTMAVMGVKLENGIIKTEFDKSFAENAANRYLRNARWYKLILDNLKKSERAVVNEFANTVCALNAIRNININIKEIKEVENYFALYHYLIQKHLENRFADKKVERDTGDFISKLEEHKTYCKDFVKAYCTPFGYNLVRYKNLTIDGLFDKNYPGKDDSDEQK
Assay: crRNA (strand 1, pre-loaded); Mg2+; 40 mM Tris-HCl pH 7.5, 150 mM NaCl, 6 mM MgCl2, 1 mM DTT, 0.1% Tween-20, 0.2 mg/ml BSA; 25 C; 10 min per concentration, then washed
Conditions: tags: His6-TwinStrep-SUMO cleaved; N-terminal SNAP kept (SNAP-Surface 488); label: 3' end held by stalled T7 RNA polymerase

Binder	Kd
B1	7 ± 0.4 nM
B2	14.4 ± 2.5 nM
B3	10.1 ± 0.9 nM
B4	4.53 ± 0.23 nM
B5	13.3 ± 1.7 nM
B6	17.2 ± 0.7 nM
B7	23.3 ± 1.1 nM
B8	26 ± 4 nM
B9	10.6 ± 0.6 nM
B10	64 ± 6 nM
B11	8.5 ± 0.5 nM
B12	29 ± 4 nM
B13	5.4 ± 0.6 nM
B14	81 ± 15 nM
B15	48 ± 5 nM
B16	13 ± 1 nM
B17	9.2 ± 0.8 nM
B18	73 ± 12 nM

Binder	Kd
B19	14.7 ± 1.7 nM
B20	13 ± 0.6 nM
B21	11.6 ± 0.6 nM
B22	42 ± 6 nM
B23	10.3 ± 0.9 nM
B24	24 ± 1.9 nM
B25	10.3 ± 1 nM
B26	9.6 ± 0.4 nM
B27	39 ± 4 nM
B28	66 ± 21 nM
B29	72 ± 9 nM
B30	42 ± 10 nM
B31	25.1 ± 1.6 nM
B32	13 ± 0.9 nM
B33	100 ± 50 nM
B34	12.5 ± 0.8 nM
B35	87 ± 24 nM
